Results on 14 molecules are retold here after patent US20200262867A1 (WNTRX PHARMACEUTICALS, published 2020).

T1: β-catenin (UniProt P35222 1-781, limits assumed)
T1 construct: also called beta-catenin
T1 sequence (looked up): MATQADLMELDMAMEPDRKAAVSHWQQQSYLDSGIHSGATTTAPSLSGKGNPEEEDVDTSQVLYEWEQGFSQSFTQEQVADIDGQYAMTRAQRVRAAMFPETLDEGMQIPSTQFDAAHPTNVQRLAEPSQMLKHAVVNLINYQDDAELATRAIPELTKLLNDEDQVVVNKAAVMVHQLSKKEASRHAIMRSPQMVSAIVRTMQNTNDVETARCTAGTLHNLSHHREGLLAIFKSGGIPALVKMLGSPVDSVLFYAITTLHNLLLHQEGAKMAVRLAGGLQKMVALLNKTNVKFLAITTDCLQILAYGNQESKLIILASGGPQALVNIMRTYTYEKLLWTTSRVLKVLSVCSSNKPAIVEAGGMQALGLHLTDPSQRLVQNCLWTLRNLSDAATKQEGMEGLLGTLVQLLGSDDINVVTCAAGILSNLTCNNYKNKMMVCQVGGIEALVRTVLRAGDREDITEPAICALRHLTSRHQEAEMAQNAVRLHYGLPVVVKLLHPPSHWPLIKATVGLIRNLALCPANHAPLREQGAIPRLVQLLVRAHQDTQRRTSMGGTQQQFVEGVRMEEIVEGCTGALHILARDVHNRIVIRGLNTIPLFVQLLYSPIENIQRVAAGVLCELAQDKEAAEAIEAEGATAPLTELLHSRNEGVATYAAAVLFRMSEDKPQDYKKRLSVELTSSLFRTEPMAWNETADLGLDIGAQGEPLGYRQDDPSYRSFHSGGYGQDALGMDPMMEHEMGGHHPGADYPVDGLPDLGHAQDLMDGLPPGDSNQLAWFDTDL

B1: SEQ ID NO: 166 (peptide)
peptide: Ac-H[NMeR]QRSLQTLR[S5]IQR[S5][Cba][2Nal]-NH2
modifications: staple 11-15
B2: SEQ ID NO: 156 (peptide)
peptide: Ac-HRQRS[Cba]QTLR[S5]IQR[S5][Cba][2Nal]-NH2
modifications: staple 11-15
SMILES: CC[C@H](C)[C@@H]1NC(=O)[C@@](C)(NC(=O)[C@H](CCCNC(=N)N)NC(=O)[C@H](CC(C)C)NC(=O)[C@@H](NC(=O)[C@H](CCC(N)=O)NC(=O)[C@H](CC2CCC2)NC(=O)[C@H](CO)NC(=O)[C@H](CCCNC(=N)N)NC(=O)[C@H](CCC(N)=O)NC(=O)[C@H](CCCNC(=N)N)NC(=O)[C@H](Cc2c[nH]cn2)NC(C)=O)[C@@H](C)O)CCCC=CCCC[C@@](C)(C(=O)N[C@@H](CC2CCC2)C(=O)N[C@@H](Cc2ccc3ccccc3c2)C(N)=O)NC(=O)[C@H](CCCNC(=N)N)NC(=O)[C@H](CCC(N)=O)NC1=O
B3: SEQ ID NO: 146 (peptide)
peptide: Ac-HRERSLQTLR[S5]IQE[S5][Cba][2Nal]-OH
modifications: staple 11-15
SMILES: CC[C@H](C)[C@@H]1NC(=O)[C@@](C)(NC(=O)[C@H](CCCNC(=N)N)NC(=O)[C@H](CC(C)C)NC(=O)[C@@H](NC(=O)[C@H](CCC(N)=O)NC(=O)[C@H](CC(C)C)NC(=O)[C@H](CO)NC(=O)[C@H](CCCNC(=N)N)NC(=O)[C@H](CCC(=O)O)NC(=O)[C@H](CCCNC(=N)N)NC(=O)[C@H](Cc2c[nH]cn2)NC(C)=O)[C@@H](C)O)CCCC=CCCC[C@@](C)(C(=O)N[C@@H](CC2CCC2)C(=O)N[C@@H](Cc2ccc3ccccc3c2)C(=O)O)NC(=O)[C@H](CCC(=O)O)NC(=O)[C@H](CCC(N)=O)NC1=O
B4: SEQ ID NO: 151 (peptide)
peptide: Ac-HR[NMeE]RSLQTLR[S5]IQR[S5][Cba][2Nal]-NH2
modifications: staple 11-15
SMILES: CC[C@H](C)[C@@H]1NC(=O)[C@@](C)(NC(=O)[C@H](CCCNC(=N)N)NC(=O)[C@H](CC(C)C)NC(=O)[C@@H](NC(=O)[C@H](CCC(N)=O)NC(=O)[C@H](CC(C)C)NC(=O)[C@H](CO)NC(=O)[C@H](CCCNC(=N)N)NC(=O)[C@H](CCC(=O)O)N(C)C(=O)[C@H](CCCNC(=N)N)NC(=O)[C@H](Cc2c[nH]cn2)NC(C)=O)[C@@H](C)O)CCCC=CCCC[C@@](C)(C(=O)N[C@@H](CC2CCC2)C(=O)N[C@@H](Cc2ccc3ccccc3c2)C(N)=O)NC(=O)[C@H](CCCNC(=N)N)NC(=O)[C@H](CCC(N)=O)NC1=O
B5: SEQ ID NO: 11 (peptide)
peptide: Ac-HQERSLQTLR[S5]IQR[S5]L[2Nal]-NH2
modifications: staple 11-15; not fully specified; printed as HQERSLQTLRXIQRXL(2-Nal)
B6: SEQ ID NO: 159 (peptide)
peptide: Ac-HRQRTLQTLR[S5]IQR[S5][Cba][2Nal]-NH2
modifications: staple 11-15
B7: SEQ ID NO: 29 (peptide)
peptide: Ac-HRERSLQTLR[S5]IQA[S5][Cba][2Nal]-NH2
modifications: staple 11-15; not fully specified; printed as HRERSLQTLRXIQAX(CBA)(2-Nal)
B8: SEQ ID NO: 179 (peptide)
peptide: Ac-HRQRSLQTLR[S5]IQR[S5][Phe(4-Cl)][2Nal]-NH2
modifications: staple 11-15
SMILES: CC[C@H](C)[C@@H]1NC(=O)[C@@](C)(NC(=O)[C@H](CCCNC(=N)N)NC(=O)[C@H](CC(C)C)NC(=O)[C@@H](NC(=O)[C@H](CCC(N)=O)NC(=O)[C@H](CC(C)C)NC(=O)[C@H](CO)NC(=O)[C@H](CCCNC(=N)N)NC(=O)[C@H](CCC(N)=O)NC(=O)[C@H](CCCNC(=N)N)NC(=O)[C@H](Cc2c[nH]cn2)NC(C)=O)[C@@H](C)O)CCCC=CCCC[C@@](C)(C(=O)N[C@@H](Cc2ccc(Cl)cc2)C(=O)N[C@@H](Cc2ccc3ccccc3c2)C(N)=O)NC(=O)[C@H](CCCNC(=N)N)NC(=O)[C@H](CCC(N)=O)NC1=O
B9: SEQ ID NO: 152 (peptide)
peptide: Ac-HRERSLQTL[NMeR][S5]IQR[S5][Cba][2Nal]-OH
modifications: staple 11-15; not fully specified
B10: SEQ ID NO: 28 (peptide)
peptide: Ac-HRERSLQTLR[S5]IQA[S5]L[2Nal]-NH2
modifications: staple 11-15; not fully specified; printed as HRERSLQTLRXIQAXL(2-Nal)
B11: SEQ ID NO: 157 (peptide)
peptide: Ac-HR[NMeD]RSLQTLR[S5]IQR[S5][Cba][2Nal]-NH2
modifications: staple 11-15
SMILES: CC[C@H](C)[C@@H]1NC(=O)[C@@](C)(NC(=O)[C@H](CCCNC(=N)N)NC(=O)[C@H](CC(C)C)NC(=O)[C@@H](NC(=O)[C@H](CCC(N)=O)NC(=O)[C@H](CC(C)C)NC(=O)[C@H](CO)NC(=O)[C@H](CCCNC(=N)N)NC(=O)[C@H](CC(=O)O)N(C)C(=O)[C@H](CCCNC(=N)N)NC(=O)[C@H](Cc2c[nH]cn2)NC(C)=O)[C@@H](C)O)CCCC=CCCC[C@@](C)(C(=O)N[C@@H](CC2CCC2)C(=O)N[C@@H](Cc2ccc3ccccc3c2)C(N)=O)NC(=O)[C@H](CCCNC(=N)N)NC(=O)[C@H](CCC(N)=O)NC1=O
B12: SEQ ID NO: 14 (peptide)
peptide: Ac-HRERSLQTLR[S5]IQR[S5][Cba][2Nal]-NH2
modifications: staple 11-15
SMILES: CC[C@H](C)[C@@H]1NC(=O)[C@@](C)(NC(=O)[C@H](CCCNC(=N)N)NC(=O)[C@H](CC(C)C)NC(=O)[C@@H](NC(=O)[C@H](CCC(N)=O)NC(=O)[C@H](CC(C)C)NC(=O)[C@H](CO)NC(=O)[C@H](CCCNC(=N)N)NC(=O)[C@H](CCC(=O)O)NC(=O)[C@H](CCCNC(=N)N)NC(=O)[C@H](Cc2c[nH]cn2)NC(C)=O)[C@@H](C)O)CCCC=CCCC[C@@](C)(C(=O)N[C@@H](CC2CCC2)C(=O)N[C@@H](Cc2ccc3ccccc3c2)C(N)=O)NC(=O)[C@H](CCCNC(=N)N)NC(=O)[C@H](CCC(N)=O)NC1=O
B13: SEQ ID NO: 6 (peptide)
peptide: Ac-HRERSLQTLR[S5]IQR[S5]L[2Nal]-NH2
modifications: staple 11-15; not fully specified; printed as HRERSLQTLRXIQRXL(2-Nal)
B14: SEQ ID NO: 145 (peptide)
peptide: Ac-HRERSLQTLR[S5]IQQ[S5][Cba][2Nal]-NH2
modifications: staple 11-15
SMILES: CC[C@H](C)[C@@H]1NC(=O)[C@@](C)(NC(=O)[C@H](CCCNC(=N)N)NC(=O)[C@H](CC(C)C)NC(=O)[C@@H](NC(=O)[C@H](CCC(N)=O)NC(=O)[C@H](CC(C)C)NC(=O)[C@H](CO)NC(=O)[C@H](CCCNC(=N)N)NC(=O)[C@H](CCC(=O)O)NC(=O)[C@H](CCCNC(=N)N)NC(=O)[C@H](Cc2c[nH]cn2)NC(C)=O)[C@@H](C)O)CCCC=CCCC[C@@](C)(C(=O)N[C@@H](CC2CCC2)C(=O)N[C@@H](Cc2ccc3ccccc3c2)C(N)=O)NC(=O)[C@H](CCC(N)=O)NC(=O)[C@H](CCC(N)=O)NC1=O

Bridges are numbered along the chain shown (N, C = ends). [ ]: non-standard residue; d: D form. Phe(4-Cl) = N[C@@H](Cc1ccc(Cl)cc1)C(=O)O; 2Nal = N[C@@H](Cc1ccc2ccccc2c1)C(=O)O; NMeR = CN[C@@H](CCCNC(=N)N)C(=O)O; NMeE = CN[C@@H](CCC(=O)O)C(=O)O; NMeD = CN[C@@H](CC(=O)O)C(=O)O; Cba = N[C@@H](CC1CCC1)C(=O)O; S5 = C=CCCC[C@](C)(N)C(=O)O

The target of this assay is T1, β-catenin. Nature of the assay: ALPHA Screen (BCL9/β-catenin).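 Note: bead proximity readout with the polypeptide linked to donor beads and β-catenin fixed on acceptor beads, their binding bringing the beads close enough to emit signal.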
Source text: In this assay, a polypeptide is conjugated to a donor bead and its target protein (i.e., β-catenin) is attached to an acceptor bead. When the two beads are in proximity due to the binding of the polypeptide to the target protein, a signal is generated and the binding affinity of the polypeptide can be quantitatively calculated. The assay may be conducted in the presence or absence of an unconjugated control polypeptide.
A word on the IC50: it is the concentration that inhibits the measured activity by half. High values mean a need for much substance, low ones inhibition by little substance. In turn, B1 had an IC50 of 403 nM.
Molecule B2 yielded an IC50 of 253 nM.
To B3 belongs 493 nM; to B4, 261 nM.
To B5 belongs 2110 nM; to B6, 291 nM.
The same measure for B7: 1350 nM.
Consider B8, for which the IC50 came out at 59 nM.
The same measure for B9: 794 nM.
The same measure for B10: 2000 nM.
B11: the IC50 stood at 525 nM.
To B12 belongs 457 nM; to B13, 670 nM; to B14, 154 nM.
